Common to all, as to test: EMSA
The target of data set [1] is T1, hPNPase Q387R (Homo sapiens, UniProt Q8TCS8 46-783, Q387R).
T1 sequence: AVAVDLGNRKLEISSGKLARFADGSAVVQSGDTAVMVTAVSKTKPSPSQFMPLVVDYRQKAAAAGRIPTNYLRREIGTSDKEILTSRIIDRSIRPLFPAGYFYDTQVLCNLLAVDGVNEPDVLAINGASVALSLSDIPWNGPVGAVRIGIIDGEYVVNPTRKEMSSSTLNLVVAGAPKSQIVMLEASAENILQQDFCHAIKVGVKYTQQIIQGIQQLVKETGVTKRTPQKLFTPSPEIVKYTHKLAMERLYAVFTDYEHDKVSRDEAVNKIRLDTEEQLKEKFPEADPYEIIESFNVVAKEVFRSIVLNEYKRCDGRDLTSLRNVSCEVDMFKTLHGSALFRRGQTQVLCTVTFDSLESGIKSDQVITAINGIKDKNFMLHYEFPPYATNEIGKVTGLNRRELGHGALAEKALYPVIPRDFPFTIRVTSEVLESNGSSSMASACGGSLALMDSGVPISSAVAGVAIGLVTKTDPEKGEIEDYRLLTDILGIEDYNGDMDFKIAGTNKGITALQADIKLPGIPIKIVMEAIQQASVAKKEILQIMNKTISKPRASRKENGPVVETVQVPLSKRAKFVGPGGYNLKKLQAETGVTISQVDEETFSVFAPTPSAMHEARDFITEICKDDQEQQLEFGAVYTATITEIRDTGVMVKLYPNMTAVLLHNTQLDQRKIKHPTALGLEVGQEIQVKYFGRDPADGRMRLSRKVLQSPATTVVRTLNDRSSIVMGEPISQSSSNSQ

In data set [2] the target is T2, hPNPase E475G (Homo sapiens, UniProt Q8TCS8 46-783, E475G).
T2 sequence: T1 sequence with R342Q, E430G

Data set [3] has as its target T1, hPNPase Q387R. This is another data set of the same source.
For another data set, the target named is T3, hPNPase P140L (Homo sapiens, UniProt Q8TCS8 46-783, P140L).
T3 sequence: T1 sequence with P95L, R342Q

Data set [4] has as its target T2, hPNPase E475G. The source holds these as a separate data set.

Results on two molecules are retold here after paper PMC12430004.

Where a chain is given by its changes, count along the chain named. Read-outs that look alike come from different tables or passages of the source.

ACUGGACAAAUACUCCGACG (ssRNA) [RNA20]: the binding result with hPNPase Q387R [1] and with hPNPase E475G [2] was “no binding” each time.

Take ACTGGACAAATACTCCGACG (ssDNA) [DNA20]: the binding result with hPNPase Q387R [3], with hPNPase P140L and with hPNPase E475G [4] was “no binding” in each case.
